# Reference: US8361965B2, “Recombinant chimeric protein of neutrophil inhibitory factor and hirugen, and pharmaceutical composition thereof” (Lunan Pharmaceutical Group Corporation, priority 2008, dated 2013)
# Entries after “also recorded” stand apart in the source; their conditions may differ. Where two headings read alike, the source gives them in different places.
# T1: Human fibrin (Homo sapiens, UniProt P02671+P02675+P02679)
# T1 construct: Human fibrin (1 g/ampoule, F5386), Sigma company; purchased Sigma F5386
# T1 sequence (P02671 36-629 limits assumed): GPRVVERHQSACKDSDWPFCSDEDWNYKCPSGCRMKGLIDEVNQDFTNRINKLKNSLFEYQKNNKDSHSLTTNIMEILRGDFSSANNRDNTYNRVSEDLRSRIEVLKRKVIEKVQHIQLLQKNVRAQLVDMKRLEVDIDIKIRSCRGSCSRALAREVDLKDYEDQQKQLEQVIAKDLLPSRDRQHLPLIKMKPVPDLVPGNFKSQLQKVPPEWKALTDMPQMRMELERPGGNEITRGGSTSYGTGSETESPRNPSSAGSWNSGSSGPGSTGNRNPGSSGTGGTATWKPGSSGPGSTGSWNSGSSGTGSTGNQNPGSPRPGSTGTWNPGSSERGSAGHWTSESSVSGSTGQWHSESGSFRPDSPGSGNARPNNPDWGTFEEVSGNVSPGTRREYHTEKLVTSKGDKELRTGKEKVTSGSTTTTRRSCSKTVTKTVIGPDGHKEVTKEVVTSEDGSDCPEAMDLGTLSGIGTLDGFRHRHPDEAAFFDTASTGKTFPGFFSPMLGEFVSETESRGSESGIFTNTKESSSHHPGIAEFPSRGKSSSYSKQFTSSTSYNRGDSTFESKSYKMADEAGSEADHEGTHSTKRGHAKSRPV
# T1 sequence (P02675 45-491 limits assumed): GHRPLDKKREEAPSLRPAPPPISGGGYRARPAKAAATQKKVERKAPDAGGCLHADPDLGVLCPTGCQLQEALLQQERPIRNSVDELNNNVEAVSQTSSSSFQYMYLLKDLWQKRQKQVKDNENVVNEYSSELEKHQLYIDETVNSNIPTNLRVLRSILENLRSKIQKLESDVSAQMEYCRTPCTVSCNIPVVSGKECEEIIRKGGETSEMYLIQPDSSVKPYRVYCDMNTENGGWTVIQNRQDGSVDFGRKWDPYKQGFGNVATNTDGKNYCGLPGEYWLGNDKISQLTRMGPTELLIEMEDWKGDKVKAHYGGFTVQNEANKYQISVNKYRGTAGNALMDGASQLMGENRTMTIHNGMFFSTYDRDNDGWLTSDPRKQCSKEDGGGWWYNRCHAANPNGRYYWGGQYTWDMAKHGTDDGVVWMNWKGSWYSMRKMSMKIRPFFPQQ
# T1 sequence (P02679 27-437 isoform P02679-2 limits assumed): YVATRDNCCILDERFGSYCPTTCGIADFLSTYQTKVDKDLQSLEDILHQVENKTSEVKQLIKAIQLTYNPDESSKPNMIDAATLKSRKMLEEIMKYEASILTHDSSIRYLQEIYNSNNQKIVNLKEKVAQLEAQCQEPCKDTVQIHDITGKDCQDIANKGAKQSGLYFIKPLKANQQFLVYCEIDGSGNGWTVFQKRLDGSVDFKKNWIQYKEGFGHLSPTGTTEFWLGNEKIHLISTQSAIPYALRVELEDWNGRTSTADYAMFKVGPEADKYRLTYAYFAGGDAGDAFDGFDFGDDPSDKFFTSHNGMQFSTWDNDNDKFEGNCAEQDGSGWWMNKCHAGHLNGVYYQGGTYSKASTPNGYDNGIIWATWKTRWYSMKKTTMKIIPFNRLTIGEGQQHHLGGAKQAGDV
# What was measured:
# [1] = tested on: cerebral ischemia in rats subjected to middle cerebral artery occlusion; format: in vivo, Wistar rats; settings: for behavioral score: full score 11
# leukocyte adhesion = assay: anti-leukocyte adhesion activity, in vitro comparative analysis; format: cell-based
# Human fibrin = biological target: T1, Human fibrin; assay: in vitro binding of TNHH to fibrin (SEC-HPLC); settings: 37° C. 1 h
# Method: Weigh TNHH, dilute to 1.0 mg/ml with phosphate buffer solution, and is ready for use; Weight fibrin precisely, dissolve and dilute to 0.1 mg/ml with phosphate buffer solution, and is ready for use; Weigh thrombin, dissolve and dilute to 100 units/ml with phosphate buffer solution, which is ready for use.
# Following the below procedures, test materials were reacted at 37° C. for 1 h, and then analyzed under the following chromatographic conditions.
# (1) pipette test material solutions (20 μl for each), loading for analysis, and recording each retention time.
# (2) pipette fibrin and thrombin solutions (0.5 ml for each), mixing and reacting at 37° C. for 1 h, and loading 20 μl sample for analysis.
# (3) pipette TNHH and fibrin solutions (0.5 ml for each), mixing and reacting at 37° C. for 1 h, and loading 20 μl sample for analysis.
# (4) pipette TNHH and thrombin solutions (0.5 ml for each), mixing and reacting at 37° C. for 1 h, and loading 20 μl sample for analysis.
# (5) pipette TNHH and mixture of fibrin and thrombin solutions (0.5 ml for each), mixing and reacting at 37° C. for 1 h, and loading 20 μl sample for analysis.
# Flow rate 0.5 ml/min; detection wavelength: 214 nm, Column temperature: room temperature; chromatogram recording time: 25 min.
molecule,measurement,setting,value
"TNHH: recombinant chimeric protein of neutrophil inhibitory factor and hirugen, Met-NIF-GGGGG-FPRPGSGG-Hirugen (SEQ ID NO: 3), expressed in E. coli (protein, N-terminal Met) MNEHNLRCPQNGTEMPGFNDSIRLQFLAMHNGYRSKLALGHISITEESESDDDDDFGFLPDFAPRASKMRYLEYDCEAEKSAYMSARNCSDSSSPPEGYDENKYIFENSNNISEAALKAMISWAKEAFNLNKTKEGEGVLYRSNHDISNFANLAWDAREKFGCAVVNCPLGEIDDETNHDGETYATTIHVVCHYPKINKTEGQPIYKVGTPCDDCSEYTKKADNTTSADPVCIPDDGVCFIGSKADYDSKEFYRFRELGGGGGFPRPGSGGNGDFEEIPEEYL",behavioral score,"[1]; 2 mg/kg bid caudal vein, 4 h",6.5 ± 1.0
same,behavioral score,"[1]; 2 mg/kg bid caudal vein, 8 h",6.2 ± 1.2
same,behavioral score,"[1]; 2 mg/kg bid caudal vein, 24 h",5.8 ± 1.2
same,behavioral score,"[1]; 2 mg/kg bid caudal vein, 48 h",5.3 ± 0.5
same,behavioral score,"[1]; 2 mg/kg bid caudal vein, 72 h",5.0 ± 0.6
same,pathological section of brain (cerebral cortex nerve cells),"[1]; 2 mg/kg bid caudal vein, HE, compared with model group","least pathological changes; also recorded: more regular structural arrangements, a portion of deeply stained nucleus, and some cytoplasmic shrinkage or disappearance"
same,Cerebral infarction volume (%),[1]; 72 h,23.2 ± 5.4 %
same,titer against leukocyte adhesion,leukocyte adhesion; TNHH 1.0 mg/ml,720 unit/ml
same,anti-leukocyte adhesion activity,leukocyte adhesion; in vitro,750 Unit/mg
same,binding with fibrin,Human fibrin,could bind with fibrin and thrombin
